# Reference: article PMC4132801, “A Structural and Biochemical Model of Processive Chitin Synthesis” (The Journal of Biological Chemistry, 2014)
# T1: SmNodC (Sinorhizobium meliloti, UniProt P04341)
# T1 construct: gene nodC; full-length (1-426), C-terminal mCherry-His fusion from pEXmCherry, E. coli BL21(DE3) C43 membrane fraction, not purified
# T1 sequence (P04341 1-426): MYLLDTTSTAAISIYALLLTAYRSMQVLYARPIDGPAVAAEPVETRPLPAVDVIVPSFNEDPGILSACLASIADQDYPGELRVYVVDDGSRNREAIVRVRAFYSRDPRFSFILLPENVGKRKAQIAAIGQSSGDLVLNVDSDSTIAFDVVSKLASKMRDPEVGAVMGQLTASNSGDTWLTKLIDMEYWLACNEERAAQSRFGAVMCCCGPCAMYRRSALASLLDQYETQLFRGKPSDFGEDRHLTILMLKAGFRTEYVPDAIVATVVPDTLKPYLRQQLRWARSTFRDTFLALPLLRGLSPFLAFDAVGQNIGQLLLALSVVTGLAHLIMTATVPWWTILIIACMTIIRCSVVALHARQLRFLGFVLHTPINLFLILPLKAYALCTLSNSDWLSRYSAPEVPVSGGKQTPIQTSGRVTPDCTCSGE
# Legend:
# Experiment in all cases: coupled fluorogenic assay: chitinase B releases 4MU from 4MU-chitooligosaccharide product
# SmNodC = target: T1, SmNodC; type: biochemical
# Excerpt: coupled fluorogenic assay: chitinase B releases 4MU from 4MU-chitooligosaccharide product on SmNodC | Nikkomycin Z is a competitive inhibitor with the substrate UDP-GlcNAc, with a Ki of […]
# [1] = substrate: CC(=O)N[C@H]1[C@H](Oc2ccc3c(C)cc(=O)oc3c2)O[C@H](CO)[C@@H](O)[C@@H]1O; type: biochemical, Sinorhizobium meliloti; details: acceptor substrate, excess UDP-GlcNAc as co-substrate, 10 mM MgCl2, pH 7.5, 250 mM NaCl, 20 °C, E. coli membrane fraction
# [2] = substrate: CC(=O)N[C@H]1[C@@H](OP(=O)(O)OP(=O)(O)OC[C@H]2O[C@@H](n3ccc(=O)[nH]c3=O)[C@H](O)[C@@H]2O)O[C@H](CO)[C@@H](O)[C@@H]1O; type: biochemical, Sinorhizobium meliloti; details: excess 4MU-GlcNAc as co-substrate, 10 mM MgCl2, pH 7.5, 250 mM NaCl, 20 °C, E. coli membrane fraction
Molecule,Ki (SmNodC) [nM],Km [1] [µM],Km [2] [µM]
C[C@@H]([C@H](N)C(=O)N[C@H](C(=O)O)[C@H]1O[C@@H](n2ccc(=O)[nH]c2=O)[C@H](O)[C@@H]1O)[C@H](O)c1ccc(O)cn1 [Nikkomycin Z],250,,
"SmNodC (Sinorhizobium meliloti 1021) (protein, full-length (1-426), C-terminal mCherry-His fusion from pEXmCherry, E. coli BL21(DE3) C43 membrane fraction, not purified) MYLLDTTSTAAISIYALLLTAYRSMQVLYARPIDGPAVAAEPVETRPLPAVDVIVPSFNEDPGILSACLASIADQDYPGELRVYVVDDGSRNREAIVRVRAFYSRDPRFSFILLPENVGKRKAQIAAIGQSSGDLVLNVDSDSTIAFDVVSKLASKMRDPEVGAVMGQLTASNSGDTWLTKLIDMEYWLACNEERAAQSRFGAVMCCCGPCAMYRRSALASLLDQYETQLFRGKPSDFGEDRHLTILMLKAGFRTEYVPDAIVATVVPDTLKPYLRQQLRWARSTFRDTFLALPLLRGLSPFLAFDAVGQNIGQLLLALSVVTGLAHLIMTATVPWWTILIIACMTIIRCSVVALHARQLRFLGFVLHTPINLFLILPLKAYALCTLSNSDWLSRYSAPEVPVSGGKQTPIQTSGRVTPDCTCSGE",,1600 ± 400,90 ± 15
